Test results as given in PMC9838529, “The neoepitope of the complement C5b-9 Membrane Attack Complex is formed by proximity of adjacent ancillary regions of C9” (Communications Biology, 2023).

How the values were obtained:
[1] = molecular target: the molecule itself; assay: SEC; analytical size exclusion (Superdex 200 Increase 5/150 GL) of C9 after the polyC9 reaction (10 mM HEPES pH 7.2, 50 mM NaCl, overnight at 37 °C); oligomer in the void volume (~1.2 mL), monomer at ~2.1 mL
[2] = molecular target: T1, whole MAC (C5b6, C7, C8αβγ, human C9) formed on liposomes (Homo sapiens); assay: far-Western, overlay or dot blot; slot immunoblot of MAC formed on liposomes from C5b6 (1 to 16.8 nM), C7 30 nM, C8 30 nM, C9 7 nM; probed with aE11; settings: both partners purified
T1 construct: C5b of C5b6: beta chain of complement C5; C5b of C5b6: alpha' chain of complement C5 (alpha chain without C5a); complement component C6 of C5b6; complement component C7; complement component C8 alpha chain; complement component C8 beta chain; complement component C8 gamma chain; complement component C9, human, wild type, as in m8; oligomeric in the MAC; also called C5b-9; oligomeric human C9 …
T1 sequence (P02748 22-559): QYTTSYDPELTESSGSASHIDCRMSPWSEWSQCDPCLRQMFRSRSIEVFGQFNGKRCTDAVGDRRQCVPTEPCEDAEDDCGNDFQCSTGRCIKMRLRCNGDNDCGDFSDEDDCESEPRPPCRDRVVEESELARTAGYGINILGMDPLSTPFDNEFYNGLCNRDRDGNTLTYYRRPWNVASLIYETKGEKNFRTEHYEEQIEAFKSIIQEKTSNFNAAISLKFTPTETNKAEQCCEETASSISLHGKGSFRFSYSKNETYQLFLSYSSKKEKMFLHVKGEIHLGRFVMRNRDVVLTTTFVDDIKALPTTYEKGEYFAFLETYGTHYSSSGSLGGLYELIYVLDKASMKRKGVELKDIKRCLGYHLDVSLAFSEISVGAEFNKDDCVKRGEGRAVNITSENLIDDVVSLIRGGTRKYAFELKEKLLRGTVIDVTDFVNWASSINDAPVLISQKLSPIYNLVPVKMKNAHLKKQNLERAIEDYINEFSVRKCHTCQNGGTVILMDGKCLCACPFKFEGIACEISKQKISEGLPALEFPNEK

[3] = molecular target: T2, polyC9 (in vitro homo-oligomerised human C9, wild type) (human); assay: SPR; aE11 IgG amine-coupled to a CM5 chip (~700 RU), polyC9 as analyte; Biacore T200, 25 °C; 10 mM HEPES-NaOH pH 7.2, 150 mM NaCl, 1 mM EDTA, 0.005% P20; multi-cycle kinetics; maximum response as relative measure; one-to-one model disregarding multivalency; settings: both partners purified
T2 construct: complement component C9, human, wild type, cloned in pSecTag2A; Tag-less purification; also called oligomeric C9; wild type oligomeric C9; source: Expi293F, purified (DEAE, CHT, SEC); oligomerised by incubating 1 mg/mL C9 overnight at 37 °C; copies: 22
T2 sequence (chain, as listed by the source): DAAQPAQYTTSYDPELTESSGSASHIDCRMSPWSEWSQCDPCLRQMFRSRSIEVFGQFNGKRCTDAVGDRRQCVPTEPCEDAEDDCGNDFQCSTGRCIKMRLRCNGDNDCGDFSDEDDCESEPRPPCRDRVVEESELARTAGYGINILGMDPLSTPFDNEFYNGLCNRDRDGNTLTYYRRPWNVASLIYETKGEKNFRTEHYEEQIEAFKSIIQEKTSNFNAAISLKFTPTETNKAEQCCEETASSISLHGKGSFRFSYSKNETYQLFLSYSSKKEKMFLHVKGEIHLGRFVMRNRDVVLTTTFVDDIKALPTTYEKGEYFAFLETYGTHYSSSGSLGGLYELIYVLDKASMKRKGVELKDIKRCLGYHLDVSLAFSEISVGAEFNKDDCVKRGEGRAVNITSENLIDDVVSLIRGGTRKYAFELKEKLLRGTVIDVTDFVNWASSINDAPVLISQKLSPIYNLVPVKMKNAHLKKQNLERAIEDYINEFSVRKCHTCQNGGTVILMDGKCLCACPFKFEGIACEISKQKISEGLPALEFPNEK

Row | Binder | binding result [1] | binding result [2] | koff [3] [s⁻¹]
1 | human complement C9 V68E (natural protein, complement component C9, human, human-to-murine point mutant; source: Expi293F, purified tag-less (anion exchange, CHT, SEC)) not shown | binds |  | 
2 | human complement C9 R65Q/V68E/P72E (natural protein, complement component C9, human, human-to-murine triple mutant; also called triple mutant; source: Expi293F, purified tag-less (anion exchange, CHT, SEC)) not shown | binds |  | 
3 | aE11 IgG (antibody, V domains shown, heavy chain of mouse monoclonal aE11; variable region as the heavy chain of m1 in PDB 8DE6; light chain (kappa) of mouse monoclonal aE11; variable region as the light chain of m1 in PDB 8DE6; also called monoclonal aE11; full aE11 IgG; source: purified from hybridoma supernatant by protein G chromatography) VH: QVQLKESGPGLVAPSQSLSITCTVSGFSLTVYGVNWIRQPPGKGLEWLGMIWGDGSTDYNSALKSRLSITKDNSKSQVFLKMNSLQTDDTARYYCARDRSYGGSSAWFGYWGQGTLVTVSA VL: DIQMTQTTSSLSASLGDRVTISCRASHDISNYLNWYQQKPDGTLKLLIYYTSRLHSGVPSRFSGSGSGTDYSLTISNLEQEDVATYFCQQGNYLPYTFGGGTKLEIK |  | binds | ~1e-06
